B1: TTC32 (parent)
chain: YSAYIRRCACAASSDESPGSKCSP
B2: FAM46D (parent)
chain: FQEAMTHLQHKLICTRKPEEIRGG

Variants of: B1
Assay: protein stability index of a GFP-peptide fusion (GPS, HEK-293T) (PSI 1-6); higher = more stable
Details: c terminus: a fixed tail appended
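Also: lentivirally expressed fusions sorted by FACS into six bins by GFP to DsRed ratio, PSI derived from sequencing read proportions per bin multiplied by bin number.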

Protein stability index, by site and new letter:
D15: T 2.76; F 2.34; S 2.41; L 1.61; K 1.81; Q 2.02; R 1.85; N 1.65; I 2.06; A 3.53; P 1.99; C 2.03; W 1.6; G 1.72; M 2.28; H 2.37; Y 2.38; V 1.51; E 2.35
Y1: K 2.75; M 2.45; D 3.44; E 3.29; R 2.64; C 2.04; F 2.27; Q 2.56; T 2.52; G 2.48; I 1.72; L 2.61; H 2.65; A 2.62; W 2.45; N 2.96; S 2.54; P 2.88; V 2.17
S2: Q 2.02; A 2.38; H 4.15; F 2.16; E 2.7; C 2.06; T 2.1; K 1.92; N 2.35; D 2.6; M 1.91; R 1.82; W 1.91; G 2.37; Y 1.92; L 2; I 1.58; P 2.59; V 2.52
A12: K 1.81; T 1.94; S 2.48; L 1.87; Q 2.12; E 2.55; V 2.16; H 2.16; D 2.49; G 2.46; Y 1.75; P 2.26; W 2.08; C 1.94; F 2.15; N 2.33; I 1.78; R 1.93; M 1.82
I5: W 3.7; Q 2.09; K 2.65; P 2.24; T 2.61; E 3.46; R 2.27; D 3.16; A 1.86; L 2.12; M 2.29; N 3.13; Y 2.45; F 2.51; C 2.15; H 2.82; S 2.52; G 2.09; V 1.85
C8: L 2.38; I 2.21; T 3.06; Y 2.07; A 3.5; G 2.87; E 3.93; M 2.05; H 2.91; R 2.99; N 3.41; W 2.48; P 3.49; D 3.89; V 2.67; K 3.48; Q 3.23; F 2; S 3.03
A11: D 1.98; M 1.83; P 2.29; K 2.36; L 1.74; T 1.94; V 2.61; N 2.35; Q 2.03; G 2.08; H 2.33; R 1.74; C 2.06; Y 2.36; F 2.11; E 1.87; I 1.94; S 1.95; W 2.04
R6: I 2.43; V 1.74; D 3.62; F 2.64; L 2.07; S 2.41; W 3.52; Q 2; K 1.97; G 2.53; P 2.66; H 1.82; C 2.26; M 1.33; Y 2.25; T 2.08; N 2.58; A 2.07; E 2.9
A3: N 1.54; Y 1.75; E 1.92; F 1.86; D 2.62; T 2.16; H 2.15; I 1.51; L 2.18; M 2.15; C 2.02; V 2.05; R 1.89; W 2.19; G 2; P 1.69; Q 2.91; K 2.44; S 2.43
E16: N 1.92; A 1.44; F 2.68; S 1.94; M 2.42; W 3.48; L 1.58; D 2.06; I 1.82; G 1.8; P 2.01; C 1.83; V 1.81; T 2.22; R 1.62; K 1.53; Y 2.36; Q 2.18; H 2.36
Y4: T 2.24; P 2.45; Q 2.65; W 3.57; E 3.34; F 1.92; H 2.12; A 2.01; M 2.1; N 2.85; D 3.36; I 2.08; K 2.5; C 2.4; L 2.45; V 3.07; R 2.67; S 2.29; G 3.35
S14: Y 1.88; L 2; F 1.45; M 1.4; D 2.38; E 2.65; A 2.16; P 2.29; C 2.18; W 1.92; V 1.53; I 1.96; Q 2.19; R 2.03; N 2.65; K 2.29; H 2.74; G 2.33; T 1.93
S13: D 2.62; W 1.98; G 2.57; E 2.03; P 1.89; I 2; V 1.49; F 2.08; T 2.1; R 2.21; Y 2.13; K 2.28; H 2.1; C 2.96; L 1.69; N 1.87; A 2.07; M 1.55; Q 1.96
C10: T 2.73; K 3.42; A 3.13; I 2.38; R 2.78; N 2.73; F 2.14; V 2.07; Q 2.69; L 2.28; S 2.92; G 3.46; M 1.97; Y 2.17; W 1.44; E 3.78; H 2.92; P 2.88; D 3.2
A9: F 1.76; R 2.66; K 2.38; V 2.17; C 1.59; N 2.37; G 1.82; T 2.14; Y 1.55; H 1.92; I 2.38; S 1.98; M 1.96; L 2.26; D 2.58; Q 2.25; E 3.19; W 1.45; P 2.16
S17: F 1.85; E 2.38; G 2.08; A 2.17; D 2.05; C 2.29
R7: P 3.01; N 2.78; D 3.92; A 2.17; L 2.16; E 2.81; W 2.53; V 1.64; S 2.42; C 1.55; F 2.59; M 2.14; G 2.7; I 1.42; K 2.23; H 1.9; Y 2.06; T 2.08; Q 2.48

Variants of: B2
Assay: as above
Details: c terminus: a fixed tail appended

Protein stability index, by site and new letter:
I13: F 1.73
R22: T 2.96
T6: L 2.04; D 3.41
K17: L 1.66
M5: G 3.54; S 3.67
H10: T 3.52; R 2.71
Q2: W 1.67
Q9: K 2.38
A4: G 2.74
E19: G 1.83; P 3.13
E20: Q 2.33
R16: N 3.02; I 2.08
K11: N 2.17; V 1.86
P18: V 2.54
G24: V 3.09
G23: C 2.08
I21: A 3.27
E3: Y 2.3
